Results taken from patent US20230137032A1 (GlaxoSmithKline, published 2023).
Several values for one entry are separate records, joined by “and”; a condition that tells them apart may be missing. Identical values can stand only once.

Tests used:
[1] = target: T1, recombinant human BCMA Fc 4-53 (human); assay: competition ELISA: binding of recombinant human APRIL to coated recombinant human BCMA Fc 4-53, biotinylated anti-APRIL and streptavidin-HRP, % of control
T1 construct: also called Human BCMA CD33-hBCMA ECD (4-53) TEV-Fc; recombinant BCMA
Protocol: (§1) 96 well flat bottomed plates were coated overnight with 1 μg/mL solution of recombinant human BCMA Fc 4-53 in PBS. Following a wash step using 0.05% TWEEN20, plates were blocked with 2% Bovine Serum Albumin solution in PBS for 1 hour at room temperature. […] 40 μL of 2% BSA was added to the relevant control wells. […] Equivalent volume of 2% BSA was added to the relevant control wells. Plates were allowed to incubate for 2 hours at room temperature, after which they were washed as before. […] Following a wash step, 50 µL of a 1:4000 dilution of Streptavidin-HRP (Amersham RPN4401) was added to each well and incubated for 30 minutes at room temperature. The wash process was repeated again followed by the addition of […] of Tetramethylbenzidine substrate solution (T8665, Sigma) into each well. Plates were incubated for 20-25 minutes at room temperature, wrapped in foil. The reaction was stopped with the addition of […] of 1M H₂SO₄. Optical density was determined at 450 nm using Spectromax reader.

[2] = target: T2, recombinant human BCMA, in house material (human, UniProt Q02223 4-53, limits assumed); assay: ProteOn SPR run 1, antibody captured on Protein A, 25C; Run 1 (Table 8)
T2 construct: also called Human in house BCMA; In house human BCMA
Protocol: (§2) The initial screen of CA8 chimeric and humanised variants was carried out on the ProteOn XPR36 (Biorad). The method was as follows; Protein A was immobilised on a GLC chip (Biorad, Cat No: 176-5011) by primary amine coupling, CA8 variants were then captured on this surface and recombinant human BCMA (in house or commercial US Biological, B0410) materials (run 2 only)) passed over at 256, 64, 16, 4, 1 nM with a 0 nM injection (i.e. buffer alone) used to double reference the binding curves, the buffer used is the HBS-EP buffer. 50 mM NaOH was used to regenerate the capture surface. The data was fitted to the 1:1 model using the analysis software inherent to the ProteOn XPR36. […] Both runs were carried out at 25° C.

[3] = target: T3, recombinant human BCMA, commercial (US Biological, B0410) (human, UniProt Q02223 5-54, limits assumed); assay: Biacore T100, antibody captured on Protein A, 25C, experiment 1
T3 construct: also called commercial human BCMA; Human commercial BCMA
T3 chain (looked up): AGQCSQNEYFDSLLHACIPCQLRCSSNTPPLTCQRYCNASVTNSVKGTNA
Protocol: Protein A was immobilised on a CMS chip (GE Healthcare, Cat No: BR-1005-30) by primary amine coupling and this surface was then used to capture the antibody molecules. Recombinant human BCMA (US Biological, B0410) was used as analyte at 256 nM, 64 nM, 16 nM, 4 nM and 1 nM. Regeneration of the capture surface was carried out using 50 mM NaOH. All binding curves were double referenced with a buffer injection (i.e. 0 nM) the data was fitted to the using the 1:1 model inherent to T100 evaluation software. The run was carried out at 25° C. and 37° C. for experiment 1 and only 37° C. for experiment 2 using HBS-EP as the running buffer.

[4] = target: T1, recombinant human BCMA Fc 4-53; assay: ELISA, neutralisation of ligand binding to plate-coated BCMA Fc 4-53; competitor APRIL; competitor APRIL
Protocol: as §1

[5] = target: T2, recombinant human BCMA, in house …; assay: ProteOn SPR run 2, antibody captured on Protein A, 25C; Run 2 (Table 9)
Protocol: as §2

[6] = target: T1, recombinant human BCMA Fc 4-53; assay: competition ELISA: binding of recombinant human BAFF to coated recombinant human BCMA Fc 4-53, biotinylated anti-BAFF and streptavidin-HRP, % of control
Protocol: as §1

[7] = target: T4, human BCMA expressed on cells (human, UniProt Q02223 1-184); assay: FACS on H929 cells, PE anti-human IgG, MFI
T4 construct: whole, on cells; also called human BCMA HEK293; ARH77-hBCMA 10B5 BCMA expressing transfectant cells
T4 sequence (looked up): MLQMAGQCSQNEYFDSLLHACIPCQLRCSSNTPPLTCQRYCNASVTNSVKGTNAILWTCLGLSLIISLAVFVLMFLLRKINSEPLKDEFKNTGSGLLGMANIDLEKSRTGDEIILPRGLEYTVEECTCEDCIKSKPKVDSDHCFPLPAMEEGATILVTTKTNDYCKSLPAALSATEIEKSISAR
Protocol: (§3) Cells were then washed with FACS buffer (PBS+0.5% BSA+0.1% sodium azide) to remove unbound antibody. Cells were incubated with a secondary PE labelled anti-human IgG antibody for 15 minutes at RT and then washed with FACS buffer to remove unbound antibody. Cells were analysed by FACS and mean fluorescence intensity (MFI) values measured to determine binding.

[8] = target: T4, human BCMA expressed on cells; assay: FMAT cell binding on HEK293 cells transfected with human BCMA, anti-human IgG FMAT Blue detection
Protocol: Cryopreserved transfected human, cyno BCMA and mock transfected HEK293 cells were recovered from LN2 storage. […] The assay plates were left for a minimum of 90 minutes before the result was read on the ABI8200 (FMAT) plate reader.

[9] = target: T4, human BCMA expressed on cells; assay: cell-based or functional assay
[10] = target: T3, recombinant human BCMA, commercial (US …); assay: ProteOn SPR run 2, antibody captured on Protein A, 25C
[11] = target: T5, recombinant cyno BCMA, in house material (cyno, UniProt A0A2K5UD97 4-52); assay: as above
T5 construct: also called Cyno in house BCMA

[12] = target: T4, human BCMA expressed on cells; assay: FACS on U266 cells, PE anti-human IgG, MFI
Protocol: as §3

B1: CA8 chimera antibody (human chimeric CA8) (antibody, V domains shown)
VH: EVQLQQSGAVLARPGASVKMSCKGSGYTFTNYWMHWVKQRPGQGLEWIGATYRGHSDTYYNQKFKGKAKLTAVTSTSTAYMELSSLTNEDSAVYYCTRGAIYNGYDVLDNWGQGTLVTVSS
VL: DIQLTQTTSSLSASLGDRVTISCSASQDISNYLNWYQQKPDGTVELVIYYTSNLHSGVPSRFSGSGSGTDYSLTIGYLEPEDVATYYCQQYRKLPWTFGGGSKLEIKR
notes: also called Chimera CA8; CA8 chimeric antibody
IC50 (read off the curve) [1]: ~0.8 µg/mL
Kd [2]: 519 pM
Kd [3]: 140 pM
EC50 [4]: 0.773 µg/mL
Kd [5]: 412 pM
IC50 (read off the curve) [6]: ~0.7 µg/mL
EC50 (read off the curve) [7]: ~0.3 µg/mL
EC50 (read off the curve) [8]: ~0.4 µg/mL
APRIL induced IC50 (phosphorylated NFkappaB in H-929 cells, MSD assay) [9]: 38.5 ug/ml and 257 nM
BAFF induced IC50 (phosphorylated NFkappaB in H-929 cells, MSD assay) [9]: 1.5 ug/ml and 10 nM
Kd [10]: 139 pM
Kd [11]: 2060 pM
EC50 (read off the curve) [12]: ~0.3 µg/mL
